Reference: patent US20240132591A1 (PANDION OPERATIONS, published 2024)

B1: MIAB174 (antibody, human IgG1, kappa)
heavy: EVQLLESGGGLVQPGGSLRLSCAASGFTFSDYWMHWVRQAPGKGLEWISYISGDSGYTNYADSVKGRFTISRDNSKNTLYLQMNSLRAEDTAVYYCARDRPYYYYMDVWGKGTTVTVSSASTKGPSVFPLAPSSKSTSGGTAALGCLVKDYFPEPVTVSWNSGALTSGVHTFPAVLQSSGLYSLSSVVTVPSSSLGTQTYICNVNHKPSNTKVDKKVEPKSCDKTHTCPPCPAPEAAGAPSVFLFPPKPKDTLMISRTPEVTCVVVDVSHEDPEVKFNWYVDGVEVHNAKTKPREEQYNSTYRVVSVLTVLHQDWLNGKEYKCKVSNKALPAPIEKTISKAKGQPREPQVYTLPPSREEMTKNQVSLTCLVKGFYPSDIAVEWESNGQPENNYKTTPPVLDSDGSFFLYSKLTVDKSRWQQGNVFSCSVMHEALHNHYTQKSLSLSPGGGGGSAPTSSSTKKTQLQLEHLLLDLQMILNGINNYKNPKLTRMLTFKFYMPKKATELKHLQCLEEELKPLEEALNLAPSKNFHLRPRDLISDINVIVLELKGSETTFMCEYADETATIVEFINRWITFSQSIISTLT
light: DIQMTQSPSSLSASVGDRVTITCRASQSVSRSLAWYQQKPGKAPKLLIYAASSLQSGVPSRFSGSGSGTDFTLTISSLQPEDFATYYCQQYKSYPVTFGQGTKVEIKRTVAAPSVFIFPPSDEQLKSGTASVVCLLNNFYPREAKVQWKVDNALQSGNSQESVTEQDSKDSTYSLSSTLTLSKADYEKHKVYACEVTHQGLSSPVTKSFNRGEC
notes: also called MIAB174-001
B2: MIAB175 (antibody, human IgG1, kappa)
heavy: EVQLLESGGGLVQPGGSLRLSCAASGFTFSSYWMHWVRQAPGKGLEWISYISGDSGYTNYADSVKGRFTISRDNSKNTLYLQMNSLRAEDTAVYYCARDRPYYYYMDVWGKGTTVTVSSASTKGPSVFPLAPSSKSTSGGTAALGCLVKDYFPEPVTVSWNSGALTSGVHTFPAVLQSSGLYSLSSVVTVPSSSLGTQTYICNVNHKPSNTKVDKKVEPKSCDKTHTCPPCPAPEAAGAPSVFLFPPKPKDTLMISRTPEVTCVVVDVSHEDPEVKFNWYVDGVEVHNAKTKPREEQYNSTYRVVSVLTVLHQDWLNGKEYKCKVSNKALPAPIEKTISKAKGQPREPQVYTLPPSREEMTKNQVSLTCLVKGFYPSDIAVEWESNGQPENNYKTTPPVLDSDGSFFLYSKLTVDKSRWQQGNVFSCSVMHEALHNHYTQKSLSLSPGGGGGSAPTSSSTKKTQLQLEHLLLDLQMILNGINNYKNPKLTRMLTFKFYMPKKATELKHLQCLEEELKPLEEALNLAPSKNFHLRPRDLISDINVIVLELKGSETTFMCEYADETATIVEFINRWITFSQSIISTLT
light: DIQMTQSPSSLSASVGDRVTITCRASQSVSRSLAWYQQKPGKAPKLLIYAASSLQSGVPSRFSGSGSGTDFTLTISSLQPEDFATYYCQQYKSYPVTFGQGTKVEIKRTVAAPSVFIFPPSDEQLKSGTASVVCLLNNFYPREAKVQWKVDNALQSGNSQESVTEQDSKDSTYSLSSTLTLSKADYEKHKVYACEVTHQGLSSPVTKSFNRGEC
notes: also called MIAB175-001
B3: MIAB177 (antibody, human IgG1, kappa)
heavy: EVQLLESGGGLVQPGGSLRLSCAASGFTFSDFWMHWVRQAPGKGLEWVSAISGSGGSTYYADSVKGRFTISRDNSKNTLYLQMNSLRAEDTAVYYCARDRPYYYYMDVWGKGTTVTVSSASTKGPSVFPLAPSSKSTSGGTAALGCLVKDYFPEPVTVSWNSGALTSGVHTFPAVLQSSGLYSLSSVVTVPSSSLGTQTYICNVNHKPSNTKVDKKVEPKSCDKTHTCPPCPAPEAAGAPSVFLFPPKPKDTLMISRTPEVTCVVVDVSHEDPEVKFNWYVDGVEVHNAKTKPREEQYNSTYRVVSVLTVLHQDWLNGKEYKCKVSNKALPAPIEKTISKAKGQPREPQVYTLPPSREEMTKNQVSLTCLVKGFYPSDIAVEWESNGQPENNYKTTPPVLDSDGSFFLYSKLTVDKSRWQQGNVFSCSVMHEALHNHYTQKSLSLSPGGGGGSAPTSSSTKKTQLQLEHLLLDLQMILNGINNYKNPKLTRMLTFKFYMPKKATELKHLQCLEEELKPLEEALNLAPSKNFHLRPRDLISDINVIVLELKGSETTFMCEYADETATIVEFINRWITFSQSIISTLT
light: DIQMTQSPSSLSASVGDRVTITCRASQSVSRSLAWYQQKPGKAPKLLIYAASSLQSGVPSRFSGSGSGTDFTLTISSLQPEDFATYYCQQYKSYPVTFGQGTKVEIKRTVAAPSVFIFPPSDEQLKSGTASVVCLLNNFYPREAKVQWKVDNALQSGNSQESVTEQDSKDSTYSLSSTLTLSKADYEKHKVYACEVTHQGLSSPVTKSFNRGEC
notes: also called MIAB177-001

target: T1, Human MAdCAM (human, UniProt Q13477 19-317, limits assumed); assay: BLI Octet, AHC capture
T1 construct: also called huMAdCAM; human MAdCAM-1
T1 sequence (looked up): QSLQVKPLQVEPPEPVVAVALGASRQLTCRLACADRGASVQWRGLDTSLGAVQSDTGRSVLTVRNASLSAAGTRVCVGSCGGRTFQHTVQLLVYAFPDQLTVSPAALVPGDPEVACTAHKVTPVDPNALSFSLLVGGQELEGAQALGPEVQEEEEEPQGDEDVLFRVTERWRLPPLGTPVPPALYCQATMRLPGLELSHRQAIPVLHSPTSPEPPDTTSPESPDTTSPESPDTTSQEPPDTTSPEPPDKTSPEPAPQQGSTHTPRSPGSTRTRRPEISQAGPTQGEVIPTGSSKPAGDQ

Binder	Kd [nM]	koff [s⁻¹]	kon [M⁻¹ s⁻¹]
B1	21.8	0.00969	445000
B2	22.6	0.0106	471000
B3	218	0.0851	391000
